Assays:
[1] = biological target: wild type p53 (bacterially purified, commercial), P04637
[2] = biological target: mutant p53 (bacterially purified, commercial), P04637

B1: GRAIL C-terminal fragment (amino acids 229-428), recombinant (protein)
chain: YSARRLRNARAQSRKQRQLKADAKKAIGRLQLRTLKQGDKEIGPDGDSCAVCIELYKPNDLVRILTCNHIFHKTCVDPWLLEHRTCPMCKCDILKALGIEVDVEDGSVSLQVPVSNEISNSASSHEEDNRSETASSGYASVQGTDEPPLEEHVQSTNESLQLVNHEANSVAVDVIPHVDNPTFEEDETPNQETAVREIKS
in vitro ubiquitination assay (UBE1, UBCH5, Myc-tagged ubiquitin), immunoblot [1]: a C-terminal RF containing GRAIL fragment is efficient in polyubiquitinating mutant p53 as compared to wild type protein | in vitro ubiquitination assay (UBE1, UBCH5, Myc-tagged ubiquitin), immunoblot [2]: a C-terminal RF containing GRAIL fragment is efficient in polyubiquitinating mutant p53 as compared to wild type protein
